Target: Bacteriorhodopsin from Halobium salinarum expressed in E. coli (Halobium salinarum) (UniProt P02945)
Assay: crystal structure; in meso nanovolume crystallisation in monooleoyl-based lipid mesophase, protein 20 mg/ml, 1.5M Na/K-Pi pH 5.6, 22°C; space group C2, three monomers in the asymmetric unit; 1.9 Å

“Bacteriorhodopsin from Halobium salinarum expressed in E. coli (from UniProt P02945 14-262) (natural protein)” showed a stoichiometry N of 3.

From article PMC4457421
